Measurements reported in patent publication US20130243795A1 (Janssen / Centocor, published 2013).

Columns and labels:
[1] = target: T1, Human CD27 ECD, monomeric soluble (construct limits not stated) (human, UniProt P26842 20-191); assay: Biacore SPR, purified mAb
T1 construct: extracellular domain; target of the Biacore assays; also called monomeric soluble CD27; CD27-His

[2] = target: T1, Human CD27 ECD, monomeric soluble …; assay: Biacore SPR, purified mAb; reference M158

T1 sequence (P26842 20-191): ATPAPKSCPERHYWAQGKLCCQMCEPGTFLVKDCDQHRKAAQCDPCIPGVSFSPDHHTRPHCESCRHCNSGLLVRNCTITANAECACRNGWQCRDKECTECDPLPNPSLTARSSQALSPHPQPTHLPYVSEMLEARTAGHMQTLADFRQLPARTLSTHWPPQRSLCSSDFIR

B1: M171 (antibody, V domains shown)
VH: EVQLVQSGAEVKKPGESLKISCKGSGYAFSSSWMNWVRQMPGKGLEWMGRIYSGDGDTNYNGKFKGQVTISADKSISTAYLQWSSLKASDTAMYYCARSDYYGDYGFAYWGQGTLVTVSS
VL: DIQMTQSPSSLSASVGDRVTITCKASQSVDYAGDSYMNWYQQKPGKAPKLLIYAASNLESGVPSRFSGSGSGTDFTLTISSLQPEDFATYYCQQSNEDPYTFGQGTKVEIK
notes: isotype not restated (path 2); also called H221, L220
Kd [1]: 0.234 nM | koff [1]: 0.000358 s⁻¹ | kon [1]: 1.53e+06 M⁻¹ s⁻¹ | fold improvement in KD against the corresponding VH1-46 variant [2]: 2 fold
